We go through 3 molecules from patent US20060040325A1 (AstraZeneca / MedImmune, published 2006).

Assay [1] addresses T1, FcγRIIIA (soluble receptor used as analyte in the BIAcore runs) (human, UniProt P08637 17-208).
T1 construct: extracellular domain; The BIAcore methods only say 'FcγRIIIA'; also called FcγIIIA
The experiment in a line: SPR (BIAcore 3000), IgG amine-coupled to CM5, soluble FcγRIIIA injected; steady-state isotherm; Run 3. The method, then: (§1) FcγRIIIA was serially diluted in 0.01 M HEPES pH 7.4 containing 0.15 M NaCl, 3 mM EDTA and 0.005% P20, at concentrations ranging from 16 uM down to 7.8 nM. Duplicate injections of each concentration were made. All binding experiments were performed at 25° C., and at a flow rate of 10 uL/min. Binding was monitored for 25 min. Following each injection of FcγRIIIA, the IgG surfaces were regenerated with a 30 sec. pulse of 5 mM HCl. FcγRIIIA was also passed over a blank reference cell which is connected, in series, to the IgG-containing flow cells. The steady-state binding curves were also corrected for injection artifacts by subtraction of buffer injections. This doubly-corrected data was then fit to a steady-state isotherm provided by the instrument manufacturer (Pharmacia Biosensor, Uppsala, Sweden) to derive the respective equilibrium binding constants (KD). Separately, a Scatchard plot of the Req data from each IgG surface was constructed to confirm the results of the binding isotherms.

Assay [2] addresses T2, FcγRIIIA-streptavidin fusion protein (tetramer) (human; Streptomyces avidinii, UniProt P08637 17-208).
T2 construct: extracellular domain; also called FcγRIIIA tetramer; Fcγtetramer; not shown: streptavidin, amplified with primers SA1/SA2 from genomic DNA of Streptomyces avidinii
The experiment in a line: ELISA: antibody captured on protein A/G, FcγRIIIA tetramer, biotin-HRP, OD450. The method, then:
ELISA for FcγRIIIA Tetramer Binding: Microtiter plates were coated with protein A/G (PIERCE) solution (0.25 μg/ml) and incubated at 4° C. overnight. The plates were then washed with PB S/0.1% Tween and any remaining binding sites were blocked with 1% BSA. 50 μl of test antibody at 1:1 dilution (from 5000 ng/ml to 4.9 ng/ml), was added to each well and inclubated for 60 min at 37° C. 50 μl of 1:500 dilution of the Fcγtetramer was added to each well and incubated for 60 min at 37° C. followed by washing. 50 μl of 1:1000 dilution of biotin-conjugated HRP (PIERCE) was added to each well and incubated for 30 min at 37° C. Detection was carried out by adding 30 μl of tetramethylbenzidine (TMB) substrate (Pierce) followed by neutralization with 30 μl of 0.2 M H₂SO₄. The absorbance was read at 450 nm.
Background: An ELISA detects its analyte on a solid surface through an enzyme-linked reagent.

Assay [3] addresses T3, human C1q complement protein (human, UniProt P02745 23-245; P02746 28-253; P02747 29-245).
T3 construct: Bought protein ('Quidal, SanDiego')
The experiment in a line: ELISA: antibody coated on the plate, human C1q, anti-C1q antibody, HRP conjugate, OD450. As to the method:
ELISA for C1q Binding: Microtiter plates were coated with 50 μl of test antibody at concentration range from 20 μg/ml to […] and incubated at 4° C. overnight. The plate was then blocked with 5% nonfat powdered milk for 60 min at 37° C. 50 μl of 5 μg/ml human C1q complement protein (Quidal, SanDiego) was added to each well and inclubated for 60 min at 37° C. 50 μl of 1:1000 dilution of anti-complement C1q antibody (Biodesign) was added to each well and incubated for 60 min at 37° C. 50 μl of 1:1000 dilution of donkey anti-sheep/goat antibody-conjugated HRP (PIERCE) was added to each well and incubated for 60 min at 37° C. Detection was carried out by adding 30 μl of tetramethylbenzidine (TMB) substrate (Pierce) followed by neutralization with 30 μl of 0.2 M H₂SO₄. The absorbance was read at 450 nm.

The target in assay [4] is T1, FcγRIIIA (soluble receptor used as …). The experiment in a line: SPR (BIAcore 3000), IgG amine-coupled to CM5, soluble FcγRIIIA injected; Scatchard plot of Req; Run 3. As to the method: as §1
For assay [5] the target is unchanged. In words: SPR (BIAcore 3000), Run 3; calculated from isotherm KD values against wild type 3F2. The method, then:
as §1

T2 sequence (P08637 17-208 limits assumed): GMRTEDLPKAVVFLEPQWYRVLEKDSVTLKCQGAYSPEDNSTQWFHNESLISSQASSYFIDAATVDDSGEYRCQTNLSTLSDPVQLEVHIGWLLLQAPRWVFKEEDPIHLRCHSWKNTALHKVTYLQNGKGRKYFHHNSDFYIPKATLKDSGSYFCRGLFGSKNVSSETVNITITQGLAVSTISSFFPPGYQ
T1 sequence (P08637 17-208): as the sequence (P08637 17-208 limits assumed) above
T3 sequence (P02745 23-245 limits assumed, chain 1 of 3): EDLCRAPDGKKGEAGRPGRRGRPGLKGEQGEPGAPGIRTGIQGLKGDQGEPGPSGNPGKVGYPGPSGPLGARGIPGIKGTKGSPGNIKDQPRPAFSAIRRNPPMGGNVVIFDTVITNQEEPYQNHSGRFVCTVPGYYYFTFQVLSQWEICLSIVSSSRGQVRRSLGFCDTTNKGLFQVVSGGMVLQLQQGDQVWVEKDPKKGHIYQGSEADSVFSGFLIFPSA
T3 sequence (P02746 28-253 limits assumed, chain 2 of 3): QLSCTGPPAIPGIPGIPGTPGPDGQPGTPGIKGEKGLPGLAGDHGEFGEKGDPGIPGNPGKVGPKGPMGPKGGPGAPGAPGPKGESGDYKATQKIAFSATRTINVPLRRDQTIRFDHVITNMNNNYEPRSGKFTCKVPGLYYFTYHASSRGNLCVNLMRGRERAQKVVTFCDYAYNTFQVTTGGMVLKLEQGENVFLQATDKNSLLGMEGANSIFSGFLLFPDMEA
T3 sequence (P02747 29-245 limits assumed, chain 3 of 3): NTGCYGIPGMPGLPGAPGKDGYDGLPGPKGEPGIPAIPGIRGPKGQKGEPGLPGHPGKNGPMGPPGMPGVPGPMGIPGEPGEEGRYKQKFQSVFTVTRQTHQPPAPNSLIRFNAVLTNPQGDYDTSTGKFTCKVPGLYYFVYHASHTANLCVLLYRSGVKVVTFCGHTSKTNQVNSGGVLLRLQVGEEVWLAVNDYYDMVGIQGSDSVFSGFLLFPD

B1: 3F2 (wild type anti-EphA2 antibody, IgG1) (antibody)
heavy: not shown
VL: AIQLTQSPSSLSASVGDRVTITCRASQSISNNLHWYLQKPGQSPQLLIYYGFQSISGVPSRFSGSGSGTDFTLTISSLQPEDFATYYCQQANSWPLTFGGGTKLEIK
notes: domain: IgG1 heavy chain constant region; 3F2 variable regions placed in the Vitaxin® IgG1 plasmid and made in NS0 cells; The light chain constant region is not described; also called 3F2-wt; 3F2-WT; copies: 2 + 2
Regarding B1, the values for the Kd in assay [1] and in assay [4] were 15600 nM and 14200 nM, respectively. In addition, the EC50 (read off the curve) (commonly the concentration needed to bring the measured effect to its halfway point) in assay [2] was around 200 ng/mL. The binding result in assay [3] is listed as “binds”.

B2: 3F2-3M (3F2 Fc variant S239D/A330L/I332E, IgG1) (antibody, name in EU numbering)
heavy: EVQLVESGGGVVRPGGSLRLSCAASGFTVSDYSMNWVRQAPGKGLEWIGFIRNKANAYTTEYSASVKGRFTISRDDSKNTLYLQMNSLKTEDTAVYYCTTYPRYHAMDSWGQGTMVTVSSASTKGPSVFPLAPSSKSTSGGTAALGCLVKDYFPEPVTVSWNSGALTSGVHTFPAVLQSSGLYSLSSVVTVPSSSLGTQTYICNVNHKPSNTKVDKKVEPKSCDKTHTCPPCPAPELLGGPDVFLFPPKPKDTLMISRTPEVTCVVVDVSHEDPEVKFNWYVDGVEVHNAKTKPREEQYNSTYRVVSVLTVLHQDWLNGKEYKCKVSNKALPLPEEKTISKAKGQPREPQVYTLPPSRDELTKNQVSLTCLVKGFYPSDIAVEWESNGQPENNYKTTPPVLDSDGSFFLYSKLTVDKSRWQQGNVFSCSVMHEALHNHYTQKSLSLSPGK
VL: B1 VL
notes: domain: IgG1 heavy chain constant region; Made in NS0 cells; The light chain constant region is not described; also called 3F2 S239D/A330L/I332E; 3M Fc variant; copies: 2 + 2
With B2, the Kd (commonly a measure of binding affinity in units of concentration) in assay [1] is 158 nM; in assay [4] it was 162 nM. The “EC50 (read off the curve)” value in assay [2] is around 50 ng/mL. For the same molecule, in assay [3], the binding result is “binds”. Further, the “Fold increase over WT” value in assay [5] was 99 fold.

B3: 3F2-1M (3F2 Fc variant I332E, IgG1) (antibody, name in EU numbering)
heavy: not shown
VL: B1 VL
notes: domain: IgG1 heavy chain constant region; Made in NS0 cells; The light chain constant region is not described; also called 3F2 I332E; 3F2-IM; copies: 2 + 2
Regarding B3, the Kd in assay [1] was 1770 nM; in assay [4], 1680 nM. Moreover, the “EC50 (read off the curve)” value in assay [2] is around 50 ng/mL. For the same molecule, the binding result in assay [3] is listed as “binds”. Moreover, in assay [5], the “Fold increase over WT” value is 8.8 fold.
